For this data set, the system named is CC1(C)S[C@@H]2[C@H](NC(=O)Cc3ccccc3)C(=O)N2[C@H]1C(=O)O. As to the kind of experiment: purified protein.

For (Escherichia coli), the Km is on record as 27 ± 4 µM and the kcat/Km amounted to 9e+06 ± 2e+06 M⁻¹ s⁻¹.
For the substance (Mycobacterium tuberculosis H37Rv), the Km is on record as 72.9 ± 0.8 µM and the specificity constant (kcat/Km) came to 640000 ± 10000 M⁻¹ s⁻¹.
